Measured values as given in patent US20140154256A1 (published 2014).

T1: recombinant human IL-1α (human, UniProt P01583 113-271)
T1 construct: Bought recombinant protein; also called rhIL-1α; hIL-1α
T1 sequence (looked up): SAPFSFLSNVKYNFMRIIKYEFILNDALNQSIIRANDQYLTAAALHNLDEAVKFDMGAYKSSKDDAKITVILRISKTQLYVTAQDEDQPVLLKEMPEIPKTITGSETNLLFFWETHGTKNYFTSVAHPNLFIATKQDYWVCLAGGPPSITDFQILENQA


Experiments:
recombinant human IL-1α [1] = molecular target: T1, recombinant human IL-1α; experiment: SPR (Biacore)
Procedure: (§1) Purified DVD-Ig samples were diluted in HEPES-buffered saline for capture across goat anti-human IgG Fc specific reaction surfaces and injected over reaction matrices at a flow rate of […]. The association and dissociation rate constants, kon (M-1s-1) and koff (s−1) were determined under a continuous flow rate of […]. […] The equilibrium dissociation constant (M) of the reaction between DVD-Ig and rhIL1α/β was then calculated from the kinetic rate constants by the following formula: KD=koff/kon. Aliquots of rhIL1α/β samples were also simultaneously injected over a blank reference and reaction CM surface to record and subtract any nonspecific binding background to eliminate the majority of the refractive index change and injection noise. Surfaces were regenerated with two subsequent […] injections of 10 mM Glycine (pH 1.5) at a flow rate of […]. The anti-Fc antibody immobilized surfaces were completely regenerated and retained their full capture capacity over twelve cycles. The apparent stoichiometry of the captured DVD-Ig-rhIL1α/β complex was calculated under saturating binding conditions (steady-state equilibrium) using the following formula: […]
(§2) The affinity of the two DVD-Igs to hIL-1 as compared to the affinity of chimeric Abs to hIL-1 was similar as indicated by the evaluation of the stoichiometry to IL-1. Both chimeric Abs, being bivalent monospecific, bound to IL-1α and IL-1β on Biocore with a stoichiometry of 1.6 and 1.7, respectively. This is common for an IgG due to inter-molecular interference when antibodies are immobilized densely on the Biacore sense chip resulting in stoichiometry being in the range from 1.5 to 2.0.

recombinant human IL-1α [2] = molecular target: T1, recombinant human IL-1α; experiment: cell-based or functional assay
recombinant human IL-1β [3] = molecular target: T2, recombinant human IL-1β (human, UniProt P01584 117-269); experiment: cell-based or functional assay
recombinant human IL-1α [4] = molecular target: T1, recombinant human IL-1α; experiment: cell-based or functional assay; remark: listed apart in the source
recombinant human IL-1β [5] = molecular target: T2, recombinant human IL-1β; experiment: cell-based or functional assay; remark: listed apart in the source
recombinant human IL-1α [6] = molecular target: T1, recombinant human IL-1α; experiment: SPR (Biacore), saturating conditions
recombinant human IL-1β [7] = molecular target: T2, recombinant human IL-1β; experiment: SPR (Biacore), saturating conditions
recombinant human IL-1α [8] = molecular target: T1, recombinant human IL-1α; experiment: SPR (Biacore); hIL-1α as 1st antigen
Procedure: (§3) The equilibrium dissociation constant (M) of the reaction between DVD-Ig and rhIL1α/β was then calculated from the kinetic rate constants by the following formula: KD=koff/kon. Aliquots of rhIL1α/β samples were also simultaneously injected over a blank reference and reaction CM surface to record and subtract any nonspecific binding background to eliminate the majority of the refractive index change and injection noise. Surfaces were regenerated with two subsequent […] injections of 10 mM Glycine (pH 1.5) at a flow rate of […]. The anti-Fc antibody immobilized surfaces were completely regenerated and retained their full capture capacity over twelve cycles. The apparent stoichiometry of the captured DVD-Ig-rhIL1α/β complex was calculated under saturating binding conditions (steady-state equilibrium) using the following formula: […]
(§4) In addition, tetravalent dual-specific antigen binding of DVD-Ig was also analyzed by Biacore (Table 14). DVD-Ig was first captured via a goat anti-human Fc antibody on the Biacore sensor chip, and the first antigen was injected and a binding signal observed. As the DVD-Ig was saturated by the first antigen, the second antigen was then injected and the second signal observed. This was done either by first injecting IL-1β then IL-1α or by first injecting IL-1α followed by IL-1β for DVD2-Ig. In either sequence, a dual-binding activity was detected. […]

recombinant human IL-1β [9] = molecular target: T2, recombinant human IL-1β; experiment: SPR (Biacore); hIL-1β as 1st antigen
Procedure: as §3, §4

recombinant human IL-1α [10] = molecular target: T1, recombinant human IL-1α; experiment: SPR (Biacore); hIL-1α as 2nd antigen, DVD1-Ig already occupied by hIL-1β
Procedure: as §3, §4

recombinant human IL-1β [11] = molecular target: T2, recombinant human IL-1β; experiment: SPR (Biacore); hIL-1β as 2nd antigen, DVD1-Ig already occupied by hIL-1α
Procedure: as §3, §4

recombinant human IL-1α [12] = molecular target: T1, recombinant human IL-1α; experiment: SPR (Biacore 3000); antibody captured via goat anti-human IgG Fc, antigen injected, 1:1 Langmuir fit
Procedure: (§5) The kinetics of DVD-Ig binding to rhIL1-α and rhIL1-β was determined by surface plasmon resonance-based measurements with a Biacore 3000 instrument (Biacore AB, Uppsala, Sweden) using HBS-EP (10 mM HEPES, pH 7.4, 150 mM NaCl, 3 mM EDTA, and 0.005% surfactant P20) at 25° C. All chemicals were obtained from Biacore AB (Uppsala, Sweden) or otherwise from a different source as described herein. Approximately, 5000 RU of goat anti-human IgG Fcγ fragment specific polyclonal antibody (Pierce Biotechnology Inc, Rockford, Ill.) diluted in 10 mM sodium acetate (pH 4.5) was directly immobilized across a CM5 research grade biosensor chip using a standard amine coupling kit according to manufacturer's instructions and procedures at 25 mg/ml. Unreacted moieties on the biosensor surface were blocked with ethanolamine. Modified carboxymethyl dextran surface in flowcell 2 and 4 was used as a reaction surface. Unmodified carboxymethyl dextran without goat anti-human IgG in flow cell 1 and 3 was used as the reference surface. For kinetic analysis, rate equations derived from the 1:1 Langmuir binding model were fitted simultaneously to association and dissociation phases of all ten injections (using global fit analysis) using the Bioevaluation 4.0.1 software. Purified DVD-Ig samples were diluted in HEPES-buffered saline for capture across goat anti-human IgG Fc specific reaction surfaces and injected over reaction matrices at a flow rate of […]. The association and dissociation rate constants, kon (M-1s-1) and koff (s−1) were determined under a continuous flow rate of […]. […] The equilibrium dissociation constant (M) of the reaction between DVD-Ig and rhIL1α/β was then calculated from the kinetic rate constants by the following formula: KD=koff/kon. Aliquots of rhIL1α/β samples were also simultaneously injected over a blank reference and reaction CM surface to record and subtract any nonspecific binding background to eliminate the majority of the refractive index change and injection noise. Surfaces were regenerated with two subsequent […] injections of 10 mM Glycine (pH 1.5) at a flow rate of […]. The anti-Fc antibody immobilized surfaces were completely regenerated and retained their full capture capacity over twelve cycles.

recombinant human IL-1β [13] = molecular target: T2, recombinant human IL-1β; experiment: as above
Procedure: as §5

recombinant human IL-1β [14] = molecular target: T2, recombinant human IL-1β; experiment: SPR (Biacore)
Procedure: as §1, §2

recombinant human IL-1α [15] = molecular target: T1, recombinant human IL-1α; experiment: SPR (Biacore); hIL-1α as 2nd antigen, DVD2-Ig already occupied by hIL-1β
Procedure: as §3, §4

recombinant human IL-1β [16] = molecular target: T2, recombinant human IL-1β; experiment: SPR (Biacore); hIL-1β as 2nd antigen, DVD2-Ig already occupied by hIL-1α
Procedure: as §3, §4

| fold lower affinity than the chimeric 3D12.E3 Ab (recombinant human IL-1α [1]) [fold] | dual-inhibition activity, MRC-5 assay with equal amounts of hIL-1α and hIL-1β both present (recombinant human IL-1α [2]) [nM] | dual-inhibition activity, MRC-5 assay with equal amounts of hIL-1α and hIL-1β both present (recombinant human IL-1β [3]) [nM] | Potency (IC50) M, MRC-5 bioassay (recombinant human IL-1α [4]) [nM] | Potency (IC50) M, MRC-5 bioassay (recombinant human IL-1β [5]) [nM] | Stoichiometry (recombinant human IL-1α [6]) | Stoichiometry (recombinant human IL-1β [7]) | Stoichiometry hIL1α:DVD-Ig (recombinant human IL-1α [8]) | Stoichiometry hILβ:DVD-Ig (recombinant human IL-1β [9]) | Stoichiometry hIL1α:DVD-Ig (recombinant human IL-1α [10]) | Stoichiometry hILβ:DVD-Ig (recombinant human IL-1β [11]) | Kd (recombinant human IL-1α [12]) [nM] | koff (recombinant human IL-1α [12]) [s⁻¹] | kon (recombinant human IL-1α [12]) [M⁻¹ s⁻¹] | Kd (recombinant human IL-1β [13]) [nM] | koff (recombinant human IL-1β [13]) [s⁻¹] | kon (recombinant human IL-1β [13]) [M⁻¹ s⁻¹] | fold higher affinity than DVD1-Ig (recombinant human IL-1β [14]) [fold] | Stoichiometry hIL1α:DVD-Ig (recombinant human IL-1α [15]) | Stoichiometry hILβ:DVD-Ig (recombinant human IL-1β [16]) | Binder |
| --- | --- | --- | --- | --- | --- | --- | --- | --- | --- | --- | --- | --- | --- | --- | --- | --- | --- | --- | --- | --- |
| 2 to 3 | 2.2 | 2.2 | 2.3 | 3.1 | 1.8 | 1.5 | 2.3 | 1.5 | 1.1 | 1 | 2.83 | 0.000105 | 37000 | 2.6 | 0.00159 | 609000 |  |  |  | hIL-1α/βDVD1-Ig (bispecific antibody, human IgG1, kappa, 13F5.G5 variable domains fused directly (no linker) to the N-terminus of 3D12.E3 variable domains, human Cγ1/Cκ; also called hIL-1a/bDVD1-Ig) heavy: not shown light: NIVLTQSPASLAVSLGQRATISCRASESVDSYGNSYMHWYQQKPGQPPKLLIYLASNLESGVPARFSGSGSRTDFTLTIDPVEADDAATYYCQQNNEDPFTFGSGTKLEIKRNIQMTQTTSSLSASLGDRVTISCRASQDISNCLNWYQQKPDGTVKLLIYYTSRLHSGVPSRFSGSGSGTDYSLTISNLEQEDIATYFCQQGKTLPYAFGGGTKLEINRTVAAPSVFIFPPSDEQLKSGTASVVCLLNNFYPREAKVQWKVDNALQSGNSQESVTEQDSKDSTYSLSSTLTLSKADYEKHKVYACEVTHQGLSSPVTKSFNRGEC |
| 3 | 1.2 | 1.2 |  |  |  |  | 1.8 | 1.6 |  |  |  |  |  |  |  |  | 3 | 1.2 | 1.3 | hIL-1α/βDVD2-Ig (bispecific antibody, human IgG1, kappa, 13F5.G5 V - linker (AKTTPP heavy, ADAAP light) - 3D12.E3 V - human Cγ1/Cκ; also called hIL-1a/bDVD2-Ig) heavy: not shown light: NIVLTQSPASLAVSLGQRATISCRASESVDSYGNSYMHWYQQKPGQPPKLLIYLASNLESGVPARFSGSGSRTDFTLTIDPVEADDAATYYCQQNNEDPFTFGSGTKLEIKRADAAPNIQMTQTTSSLSASLGDRVTISCRASQDISNCLNWYQQKPDGTVKLLIYYTSRLHSGVPSRFSGSGSGTDYSLTISNLEQEDIATYFCQQGKTLPYAFGGGTKLEINRTVAAPSVFIFPPSDEQLKSGTASVVCLLNNFYPREAKVQWKVDNALQSGNSQESVTEQDSKDSTYSLSSTLTLSKADYEKHKVYACEVTHQGLSSPVTKSFNRGEC |
